For orientation: EC50 means the concentration that produces a half-maximal response. The low end stands for an effect from little substance, the high end for a need for much substance. Broadly, the Kd is the free concentration of one partner at which half of the binding sites on the other are occupied at equilibrium, for simple one-to-one binding. One may read the kon as the second-order rate constant of association. The EC50 (read off the curve) is the concentration that produces a half-maximal response. High values mean a need for much substance, low ones an effect from little substance.

We go through 13 molecules from patent US20260265405A1 (NONA BIOSCIENCES SUZHOU, published 2026).

The target in experiment [1] is T1, membrane-bound human MSLN (on CHOK1-hu MSLN cells and endogenously on COV644 cells) (human, UniProt Q13421 296-598). In words: cell-based or functional assay.
Experiment [2] has as its target T1, membrane-bound human MSLN (on CHOK1-hu …). Kind of experiment: flow cytometry on COV644 cells. The protocol: (§1) Binding of recombinant anti-MSLN antibodies to COV644 cell line (ECACC, catalog: 07071908) was tested by flow cytometry. In brief, anti-MSLN antibodies were serially diluted in staining buffer (PBS containing 2% FBS). 50 μL of diluted antibody solution was added to 50 μL of cell suspension containing 1-2×10⁵ cells and incubated at 4° C. for 1 hour. The cells were washed twice with staining buffer (PBS containing 2% FBS), and 100 μL of 1:1000 diluted florescent labeled anti-human IgG antibody (Alexa Fluor® 488 AffiniPure Goat Anti-Human IgG(H+L), Jackson ImmunoResearch, Catalog 109-545-088) was added into each well. After 1-hour incubation at 4° C., cells were washed twice with staining buffer and subjected to flow cytometry.
Background: Flow cytometry measures light scatter and fluorescence of single cells or particles in a stream.

Experiment [3] has as its target T2, recombinant human MSLN ECD His-tag protein (Acro Biosystems, Catalog #MSN-H5223) (human, UniProt Q13421 296-580, limits assumed).
T2 construct: extracellular domain; Bought protein; also called human MSLN protein; recombinant human MSLN-His tag; not shown: His-tag
Kind of experiment: BLI (Octet Red384), antibody on AHC sensor, human MSLN-His in solution. The protocol:
In the example, binding kinetics of anti-MSLN antibodies to soluble MSLN were analyzed by Octet Red384 (Fortebio). In Bio-Layer Interferometry (BLI) analysis, recombinant human MSLN-His tag (Acro Biosystems, Catalog #MSN-H5223) was serially diluted with 1× kinetic buffer (Fortebio). Anti-MSLN antibodies were diluted to 5 μg/mL. Then the diluted antibodies, antigen and regeneration buffer (10 mM glycine pH 1.75) were added to 96-well plates (Greiner). Rate constants for association and dissociation were measured using AHC sensor (Fortebio). The sensor surface was regenerated after each binding experiment with regeneration buffer. The traces were processed using Octet Data Analysis Software (version 11.0, Pall ForteBio, CA, USA).

Experiment [4] concerns the target T1, membrane-bound human MSLN (on CHOK1-hu …). Kind of experiment: flow cytometry on CHOK1-human MSLN cells, Alexa Fluor 488 anti-human IgG detection [panel A]. The protocol: (§2) Binding of recombinant anti-MSLN antibodies to human or cynomolgus MSLN-expressing cells was tested by flow cytometry.
as §1, with “In” for “Binding of recombinant anti-MSLN antibodies to COV644 cell line (ECACC, catalog: 07071908) was tested by flow cytometry. In”

The target is the same in experiment [5]. Kind of experiment: flow cytometry on COV644 cells (endogenous human MSLN), Alexa Fluor 488 anti-human IgG detection [panel A]. The protocol: as §2
as §1, with “In” for “Binding of recombinant anti-MSLN antibodies to COV644 cell line (ECACC, catalog: 07071908) was tested by flow cytometry. In”

For experiment [6] the target is unchanged. In words: flow cytometry on CHOK1-human MSLN cells, Alexa Fluor 488 anti-human IgG detection [panel B]. The protocol: as §2
as §1, with “In” for “Binding of recombinant anti-MSLN antibodies to COV644 cell line (ECACC, catalog: 07071908) was tested by flow cytometry. In”

T1 sequence (Q13421 other isoform, or with tags, fused parts or gaps limits assumed): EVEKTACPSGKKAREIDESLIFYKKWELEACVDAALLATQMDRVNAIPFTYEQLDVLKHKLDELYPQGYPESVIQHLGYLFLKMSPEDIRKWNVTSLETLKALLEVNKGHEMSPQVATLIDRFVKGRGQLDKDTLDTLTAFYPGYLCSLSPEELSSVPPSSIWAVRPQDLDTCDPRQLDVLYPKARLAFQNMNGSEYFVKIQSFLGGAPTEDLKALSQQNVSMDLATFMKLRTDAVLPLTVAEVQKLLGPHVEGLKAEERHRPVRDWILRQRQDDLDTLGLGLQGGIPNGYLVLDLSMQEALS
T2 sequence (Q13421 other isoform, or with tags, fused parts or gaps limits assumed): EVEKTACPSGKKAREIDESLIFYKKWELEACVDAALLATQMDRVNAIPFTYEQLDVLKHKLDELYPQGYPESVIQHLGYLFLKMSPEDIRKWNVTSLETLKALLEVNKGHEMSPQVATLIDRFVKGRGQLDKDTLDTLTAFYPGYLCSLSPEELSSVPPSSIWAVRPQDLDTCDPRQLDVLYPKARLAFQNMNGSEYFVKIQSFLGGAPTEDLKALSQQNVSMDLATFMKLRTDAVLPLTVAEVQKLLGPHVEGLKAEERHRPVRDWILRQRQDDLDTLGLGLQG

B1: PR300159 (antibody, V domains shown)
VH: QVQLVESGGGVVQPGRSLRLSCAASGFTFSSDGMNWVRQAPGKGLEWVAVIWNDGSNKYYADSVKGRFTISRDNSKNTLYLQMNSLRAEDTAVYYCARDRGPLWPLDYWGQGTLVTVSS
VL: DIQMTQSPSTLSASVGDRVTITCRASQSISRWLAWYQQKPGKAPKLLIYKASSLESGVPSRFSGSGSGTEFTLTISNLQPDDFATFYCQQYNSYSRTFGQGTKVEIKR
notes: Parental antibody from Harbour H2L2 mice
For the molecule B1, the “Internalization FLU” value in experiment [1] was 22200 FLU. Besides, in experiment [2], the EC50 was 1.99 nM and the “TOP (MFI)” value was determined as 2.07e+06 MFI. In experiment [3], the Kd is 0.00965 nM and the kon worked out at 1.28e+06 M⁻¹ s⁻¹. Also, in experiment [4], the “EC50 (read off the curve)” value was around 1 nM. For the same molecule, the concentration giving a half-maximal response (EC50 (read off the curve)) in experiment [5] is around 0.4 nM.

B2: PR300159-8 (antibody, V domains shown)
VH: QVQLVESGGGVVQPGRSLRLSCAASGFTFSSDGMNWVRQAPGKGLEWVAVIWNDGSNKYYADSVKGRFTISRDNSKNTLYLQMNSLRAEDTAVYYCARDRGPLWPLDYWGQGTLVTVSS
VL: DIQMTQSPSTLSASVGDRVTITCRASQSISRWLAWYQQKPGKAPKLLIYKASSLESGVPSRFSGSGSGTEFTLTISNLQPDDFATFYCQQYASYSRTFGQGTKVEIKR
notes: PTM removal variant of PR300159: light chain N92A
With B2, the “Internalization FLU” value in experiment [1] was 21200 FLU. Besides, in experiment [2], the EC50 is 2.33 nM and the “TOP (MFI)” value amounted to 2.15e+06 MFI. In experiment [3], the equilibrium dissociation constant (Kd) was below 0.001 nM and the kon amounted to 956000 M⁻¹ s⁻¹.

B3: PR300159-9 (antibody, V domains shown)
VH: QVQLVESGGGVVQPGRSLRLSCAASGFTFSSDAMNWVRQAPGKGLEWVAVIWNEGSNKYYADSVKGRFTISRDNSKNTLYLQMNSLRAEDTAVYYCARDRGPLWPLDYWGQGTLVTVSS
VL: DIQMTQSPSTLSASVGDRVTITCRASQSISRWLAWYQQKPGKAPKLLIYKASSLESGVPSRFSGSGSGTEFTLTISNLQPDDFATFYCQQYNAYSRTFGQGTKVEIKR
notes: PTM removal variant of PR300159: heavy chain G33A and D54E, light chain S93A
Regarding B3, in experiment [1], the “Internalization FLU” value stood at 8300 FLU. Besides, in experiment [2], the EC50 came to 8.25 nM and the “TOP (MFI)” value was 1.56e+06 MFI. In experiment [3], the dissociation constant (Kd) is below 0.001 nM and the association rate constant (kon) is 566000 M⁻¹ s⁻¹.

B4: PR300159-4 (antibody, V domains shown)
VH: QVQLVESGGGVVQPGRSLRLSCAASGFTFSSDGMNWVRQAPGKGLEWVAVIWNDGSNKYYADSVKGRFTISRDNSKNTLYLQMNSLRAEDTAVYYCARDRGPLWPLDYWGQGTLVTVSS
VL: DIQMTQSPSTLSASVGDRVTITCRASQSISRWLAWYQQKPGKAPKLLIYKASSLESGVPSRFSGSGSGTEFTLTISNLQPDDFATFYCQQYNAYSRTFGQGTKVEIKR
notes: PTM removal variant of PR300159: light chain S93A
For the molecule B4, in experiment [1], the “Internalization FLU” value is 20900 FLU. In experiment [3], the Kd was below 0.001 nM and the kon turned out to be 978000 M⁻¹ s⁻¹.

B5: PR300159-7 (antibody, V domains shown)
VH: QVQLVESGGGVVQPGRSLRLSCAASGFTFSSDGMNWVRQAPGKGLEWVAVIWNDGSNKYYADSVKGRFTISRDNSKNTLYLQMNSLRAEDTAVYYCARDRGPLWPLDYWGQGTLVTVSS
VL: DIQMTQSPSTLSASVGDRVTITCRASQSISRWLAWYQQKPGKAPKLLIYKASSLESGVPSRFSGSGSGTEFTLTISNLQPDDFATFYCQQYTSYSRTFGQGTKVEIKR
notes: PTM removal variant of PR300159: light chain N92T
Consider B5, for which the “Internalization FLU” value in experiment [1] stood at 22400 FLU. For the same molecule, in experiment [3], the Kd was below 0.001 nM and the kon was determined as 1.06e+06 M⁻¹ s⁻¹.

B6: PR300159-6 (antibody, V domains shown)
VH: QVQLVESGGGVVQPGRSLRLSCAASGFTFSSDGMNWVRQAPGKGLEWVAVIWNDGSNKYYADSVKGRFTISRDNSKNTLYLQMNSLRAEDTAVYYCARDRGPLWPLDYWGQGTLVTVSS
VL: DIQMTQSPSTLSASVGDRVTITCRASQSISRWLAWYQQKPGKAPKLLIYKASSLESGVPSRFSGSGSGTEFTLTISNLQPDDFATFYCQQYNTYSRTFGQGTKVEIKR
notes: PTM removal variant of PR300159: light chain S93T
With B6, the “Internalization FLU” value in experiment [1] stood at 17800 FLU. For the same molecule, in experiment [2], the concentration giving a half-maximal response (EC50) was determined as 4.07 nM and the “TOP (MFI)” value is 2.19e+06 MFI. Moreover, in experiment [3], the Kd was below 0.001 nM and the on-rate constant (kon) came out at 819000 M⁻¹ s⁻¹.

B7: PR300159-5 (antibody, V domains shown)
VH: QVQLVESGGGVVQPGRSLRLSCAASGFTFSSDGMNWVRQAPGKGLEWVAVIWNDGSNKYYADSVKGRFTISRDNSKNTLYLQMNSLRAEDTAVYYCARDRGPLWPLDYWGQGTLVTVSS
VL: DIQMTQSPSTLSASVGDRVTITCRASQSISRWLAWYQQKPGKAPKLLIYKASSLESGVPSRFSGSGSGTEFTLTISNLQPDDFATFYCQQYQSYSRTFGQGTKVEIKR
notes: PTM removal variant of PR300159: light chain N92Q
As to B7, the “Internalization FLU” value in experiment [1] turned out to be 20900 FLU. In addition, in experiment [2], a half-maximal effect (EC50) was put at 2.75 nM and the “TOP (MFI)” value was found to be 2.13e+06 MFI. Besides, in experiment [3], the Kd is below 0.001 nM and the kon was 1.05e+06 M⁻¹ s⁻¹.

B8: PR300159-1 (antibody, V domains shown)
VH: QVQLVESGGGVVQPGRSLRLSCAASGFTFSSDAMNWVRQAPGKGLEWVAVIWNEGSNKYYADSVKGRFTISRDNSKNTLYLQMNSLRAEDTAVYYCARDRGPLWPLDYWGQGTLVTVSS
VL: DIQMTQSPSTLSASVGDRVTITCRASQSISRWLAWYQQKPGKAPKLLIYKASSLESGVPSRFSGSGSGTEFTLTISNLQPDDFATFYCQQYSSYSRTFGQGTKVEIKR
notes: PTM removal variant of PR300159: heavy chain G33A and D54E, light chain N92S
On to B8, for which the “Internalization FLU” value in experiment [1] was determined as 13700 FLU. In experiment [2], it took 1.64 nM to reach a half-maximal effect (EC50) and the “TOP (MFI)” value came to 2.34e+06 MFI. Besides, in experiment [3], the Kd is below 0.001 nM and the on-rate (kon) came to 947000 M⁻¹ s⁻¹.

B9: PR300159-3 (antibody, V domains shown)
VH: QVQLVESGGGVVQPGRSLRLSCAASGFTFSSDAMNWVRQAPGKGLEWVAVIWNDASNKYYADSVKGRFTISRDNSKNTLYLQMNSLRAEDTAVYYCARDRGPLWPLDYWGQGTLVTVSS
VL: DIQMTQSPSTLSASVGDRVTITCRASQSISRWLAWYQQKPGKAPKLLIYKASSLESGVPSRFSGSGSGTEFTLTISNLQPDDFATFYCQQYNSYSRTFGQGTKVEIKR
notes: PTM removal variant of PR300159: heavy chain G33A and G55A
Take B9: the “Internalization FLU” value in experiment [1] was found to be 9180 FLU. For the same molecule, in experiment [2], the EC50 was found to be 2.14 nM and the “TOP (MFI)” value was 2.06e+06 MFI. In experiment [3], the equilibrium dissociation constant (Kd) was below 0.001 nM and the on-rate constant (kon) amounted to 828000 M⁻¹ s⁻¹.

B10: PR300186 (antibody, human IgG1, kappa, V domains shown)
VH: QVQLQESGPGLVKPSETLSLTCTVSGGSINNYYWSWVRQPPGKGLEWIGYIFYSGSTNSNPSLKSRVIISVDTSKNQFSLKLSSVTAADTAVYYCAREVGRIAVAGWFFDLWGRGTLVTVSS
VL: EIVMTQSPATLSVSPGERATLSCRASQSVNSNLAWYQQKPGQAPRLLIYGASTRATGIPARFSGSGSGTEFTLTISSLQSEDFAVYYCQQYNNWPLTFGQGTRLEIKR
notes: as for B1
For the molecule B10, in experiment [1], the “Internalization FLU” value stood at 6050 FLU. Also, in experiment [3], the Kd was 18.6 nM and the kon came to 705000 M⁻¹ s⁻¹. The concentration giving a half-maximal response (EC50 (read off the curve)) in experiment [6] was around 0.4 nM.

B11: PR300186-9 (antibody, human IgG1, kappa, V domains shown)
VH: QVQLQESGPGLVKPSETLSLTCTVSGGSINNYYWSWVRQPPGKGLEWIGYIFYSGSTNSNPSLKSRVIISVDTSKNQFSLKLSSVTAADTAVYYCAREVGRIAVAGWFFDLWGRGTLVTVSS
VL: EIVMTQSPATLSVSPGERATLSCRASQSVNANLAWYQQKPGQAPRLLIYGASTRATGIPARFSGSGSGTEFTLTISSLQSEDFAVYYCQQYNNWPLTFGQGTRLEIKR
For B11, the “Internalization FLU” value in experiment [1] turned out to be 8070 FLU.

B12: PR300186-10 (antibody, human IgG1, kappa, V domains shown)
VH: QVQLQESGPGLVKPSETLSLTCTVSGGSIQNYYWSWVRQPPGKGLEWIGYIFYSGSTQSNPSLKSRVIISVDTSKNQFSLKLSSVTAADTAVYYCAREVGRIAVAGWFFDLWGRGTLVTVSS
VL: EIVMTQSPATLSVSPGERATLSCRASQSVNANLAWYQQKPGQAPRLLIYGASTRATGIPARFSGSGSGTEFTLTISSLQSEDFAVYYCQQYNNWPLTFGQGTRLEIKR
notes: PTM removal variant of PR300186: heavy chain N30Q and N58Q, light chain S31A
Regarding B12, in experiment [1], the “Internalization FLU” value is 8220 FLU. Moreover, in experiment [3], the Kd worked out at 128 nM and the on-rate (kon) is 431000 M⁻¹ s⁻¹.

B13: PR300186-3 (antibody, human IgG1, kappa, V domains shown)
VH: QVQLQESGPGLVKPSETLSLTCTVSGGSIQNYYWSWVRQPPGKGLEWIGYIFYSGSTQSNPSLKSRVIISVDTSKNQFSLKLSSVTAADTAVYYCAREVGRIAVAGWFFDLWGRGTLVTVSS
VL: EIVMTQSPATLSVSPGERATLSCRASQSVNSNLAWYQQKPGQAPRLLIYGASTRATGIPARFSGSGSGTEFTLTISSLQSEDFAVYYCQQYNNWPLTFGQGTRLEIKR
On to B13, for which, in experiment [1], the “Internalization FLU” value is 7040 FLU.
